Source: patent publication US7183376

Target: human CD28 receptor on T cells (human, UniProt P10747 19-220)
Experiment: cell-based or functional assay

B1: Round 2 CD28BP-15 (ligand)
chain: ITPKSVTKRVKETVMLSCDYNTSTEELTSLRIYWQKDSKMVLAILPGKVQVWPEYKNRTITDMNDNPRIVILALRPSDSGTYTCVIQKPVLKGAYKLEHLASVRLMIRADFPVPTINDLGNPSPNIRRLICSTSGGFPRPHLYWLENGEELNATNTTVSQDPGTELYMISSELDFNVTNNHSIVCLIKYGELSVSQIFPWSKPKQEPPIDQLPFWVIIPVSGALVLTAVVLYCLACRHVARWKRTRRNEETVGTERLSPIYLGSAQSSG
- T cell proliferation (3H-thymidine), transfected 293 HEK cells: ~3 fold
